# Results reported in patent US20220290188.
# Key:
# Assay in all cases: cell_activity
# [1] = tested on: TL8181 TALE-KRAB (synthetic); conditions: TIM3, day 2
# [2] = tested on: TL11110 TALE-KRAB (synthetic); conditions: PD-1, day 2
# [3] = tested on: TL11126 TALE-KRAB (synthetic); conditions: PD-1, day 2
# [4] = tested on: TL11102 TALE-KRAB (synthetic); conditions: PD-1, day 2
# [5] = tested on: TL11088 TALE-KRAB (synthetic); conditions: PD-1, day 2
# [6] = tested on: TL11877 TALE-KRAB (synthetic); conditions: PD-1, day 2; table prints SEQ 63 but bases match SEQ 18
# [7] = tested on: TL11131 TALE-KRAB (synthetic); conditions: PD-1, day 2
# [8] = tested on: TL11112 TALE-KRAB (synthetic); conditions: PD-1, day 2
# [9] = tested on: TL11105 TALE-KRAB (synthetic); conditions: PD-1, day 2
# [10] = tested on: TL11087 TALE-KRAB (synthetic); conditions: PD-1, day 2
# [11] = tested on: TL11132 TALE-KRAB (synthetic); conditions: PD-1, day 2
# [12] = tested on: TL11133 TALE-KRAB (synthetic); conditions: PD-1, day 2
# [13] = tested on: TL11124 TALE-KRAB (synthetic); conditions: PD-1, day 2
# [14] = tested on: TL11092 TALE-KRAB (synthetic); conditions: PD-1, day 2
# [15] = tested on: TL11127 TALE-KRAB (synthetic); conditions: PD-1, day 2
# [16] = tested on: TL8241 TALE-KRAB (synthetic); conditions: LAG3, day 2
# [17] = tested on: TL11879 TALE-KRAB (synthetic); conditions: PD-1, day 2
# [18] = tested on: TL11130 TALE-KRAB (synthetic); conditions: PD-1, day 2
# [19] = tested on: TL11876 TALE-KRAB (synthetic); conditions: PD-1, day 2
# [20] = tested on: TL8201 TALE-KRAB (synthetic); conditions: TIM3, day 2
# [21] = tested on: TL11875 TALE-KRAB (synthetic); conditions: PD-1, day 2
# [22] = tested on: TL11099 TALE-KRAB (synthetic); conditions: PD-1, day 2
# [23] = tested on: TL8222 TALE-KRAB (synthetic); conditions: LAG3, day 2
# [24] = tested on: TL8220 TALE-KRAB (synthetic); conditions: LAG3, day 2
# [25] = tested on: TL11129 TALE-KRAB (synthetic); conditions: PD-1, day 2
# [26] = tested on: TL11128 TALE-KRAB (synthetic); conditions: PD-1, day 2
# [27] = tested on: TL11103 TALE-KRAB (synthetic); conditions: PD-1, day 2
# [28] = tested on: TL11119 TALE-KRAB (synthetic); conditions: PD-1, day 2
# [29] = tested on: TL11096 TALE-KRAB (synthetic); conditions: PD-1, day 2
# [30] = tested on: TL8188 TALE-KRAB (synthetic); conditions: TIM3, day 2
# [31] = tested on: TL11084 TALE-KRAB (synthetic); conditions: PD-1, day 2
# [32] = tested on: TL11108 TALE-KRAB (synthetic); conditions: PD-1, day 2
# [33] = tested on: TL11093 TALE-KRAB (synthetic); conditions: PD-1, day 2
# [34] = tested on: TL8214 TALE-KRAB (synthetic); conditions: LAG3, day 2
# [35] = tested on: TL11094 TALE-KRAB (synthetic); conditions: PD-1, CD3+ T cells, day 2
# [36] = tested on: TL11104 TALE-KRAB (synthetic); conditions: PD-1, day 2
# [37] = tested on: TL11101 TALE-KRAB (synthetic); conditions: PD-1, day 2
# [38] = tested on: TL8216 TALE-KRAB (synthetic); conditions: LAG3, day 2
# [39] = tested on: TL9598 TALE-KRAB (synthetic); conditions: LAG3, day 2
# [40] = tested on: pAL040 TALE-KRAB (synthetic); conditions: PD-1, day 2
# [41] = tested on: TL9342 TALE-KRAB (synthetic); conditions: TIM3, day 2
# [42] = tested on: TL8189 TALE-KRAB (synthetic); conditions: TIM3, day 2
# [43] = tested on: TL9337 TALE-KRAB (synthetic); conditions: TIM3, day 2
# [44] = tested on: TL9606 TALE-KRAB (synthetic); conditions: LAG3, day 2
# [45] = tested on: pAL043 (PD02) TALE-KRAB (synthetic); conditions: PD-1, day 2
# [46] = tested on: TL9339 TALE-KRAB (synthetic); conditions: TIM3, day 2
# [47] = tested on: TL9820 TALE-KRAB (synthetic); conditions: LAG3, day 2
# [48] = tested on: TL11106 TALE-KRAB (synthetic); conditions: PD-1, day 2
# [49] = tested on: TL9717 TALE-KRAB (synthetic); conditions: LAG3, day 2
sequence,measurement,setting,value
ACTTCTTCCAACTGT (double strand) [TL8181 site],activity,[1],> 50 % repression
CAACCTGACCTGGGACAGTT (double strand) [TL11110 site],activity,[2],> 80 % repression
CACTCTCGCCCACGTGGAT (double strand) [TL11126 site],activity,[3],> 50 % repression
CCACTGCTCAGGCGGAGGT (double strand) [TL11102 site],activity,[4],> 50 % repression
CCCACAGGCGCCCTGG (double strand) [TL11088 site],activity,[5],> 50 % repression
CCCAGGTCAGGTTGAAG (double strand) [TL11877 site],activity,[6],> 80 % repression
CCCCCAGCACTGCCTCT (double strand) [TL11131 site],activity,[7],> 50 % repression
CCCTTCAACCTGACCT (double strand) [TL11112 site],activity,[8],> 80 % repression
CCCTTCCGCTCACCTCCGC (double strand) [TL11105 site],activity,[9],> 80 % repression
CCTCCACATCCACGTGGGC (double strand) [TL11087 site],activity,[10],> 50 % repression
CCTCCCCCAGCACTGC (double strand) [TL11132 site],activity,[11],> 80 % repression
CCTCCCCCAGCACTGCC (double strand) [TL11133 site],activity,[12],> 80 % repression
CTCGCCCACGTGGATGTGG (double strand) [TL11124 site],activity,[13],> 50 % repression
CTGCATGCCTGGAGCAG (double strand) [TL11092 site],activity,[14],> 50 % repression
CTGTCACTCTCGCCCACGT (double strand) [TL11127 site],activity,[15],> 50 % repression
CTGTTCCCTGGGACACCCCC (double strand) [TL8241 site],activity,[16],> 50 % repression
CTTCCTCCACATCCACG (double strand) [TL11879 site],activity,[17],> 50 % repression
GACAGAGGCAGTGCTGG (double strand) [TL11130 site],activity,[18],> 50 % repression
GACCTGGGACAGTTTCC (double strand) [TL11876 site],activity,[19],> 80 % repression
GAGAAAATTGTATTAGAT (double strand) [TL8201 site],activity,[20],> 50 % repression
GCAGATCCCACAGGCGC (double strand) [TL11875 site],activity,[21],> 80 % repression
GCCGCCTTCTCCACT (double strand) [TL11099 site],activity,[22],> 80 % repression
GCCGTTCTGCTGGTCT (double strand) [TL8222 site],activity,[23],> 80 % repression
GCCGTTCTGCTGGTCTCT (double strand) [TL8220 site],activity,[24],> 80 % repression
GCCTCTGTCACTCTCG (double strand) [TL11129 site],activity,[25],> 80 % repression
GCCTCTGTCACTCTCGCCC (double strand) [TL11128 site],activity,[26],> 80 % repression
GCTCAGGCGGAGGTGAG (double strand) [TL11103 site],activity,[27],> 50 % repression
GCTCCCGCCCCCTCTTCCT (double strand) [TL11119 site],activity,[28],> 50 % repression
GGAGCAGCCCCACCAGAGT (double strand) [TL11096 site],activity,[29],> 50 % repression
GGCAGTGTTACTATAA (double strand) [TL8188 site],activity,[30],> 80 % repression
GGCCAGGGCGCCTGT (double strand) [TL11084 site],activity,[31],> 50 % repression
GGGACAGTTTCCCTTC (double strand) [TL11108 site],activity,[32],> 80 % repression
GGGGCTGCTCCAGGCATGC (double strand) [TL11093 site],activity,[33],> 50 % repression
GGTCTCTGGGCCTTCA (double strand) [TL8214 site],activity,[34],> 80 % repression
GGTGGGGCTGCTCCAGG (double strand) [TL11094 site],activity,[35],> 80 % repression
TCCGCTCACCTCCGCCTGA (double strand) [TL11104 site],activity,[36],> 80 % repression
TCTCCACTGCTCAGGCG (double strand) [TL11101 site],activity,[37],> 80 % repression
TCTGCTGGTCTCTGGGCC (double strand) [TL8216 site],activity,[38],> 80 % repression
TCTGCTGGTCTCTGGGCCTTC (double strand) [TL9598 site],activity,[39],> 80 % repression
TCTGTCACTCTCGCCCAC (double strand) [pAL040 site],activity,[40],> 80 % repression
TGCCACACTACACACAT (double strand) [TL9342 site],activity,[41],> 80 % repression
TGCCAGTGATTCTTATAGT (double strand) [TL8189 site],activity,[42],> 80 % repression
TGGCAATCAGACACCCGGGTG (double strand) [TL9337 site],activity,[43],> 80 % repression
TGGTCTCTGGGCCTTCACCC (double strand) [TL9606 site],activity,[44],> 80 % repression
TGGTGGGGCTGCTCC (double strand) [pAL043 site],activity,[45],> 80 % repression
TGTCTGATTGCCAGTGATT (double strand) [TL9339 site],activity,[46],> 80 % repression
TTCACCCCTGTGCCCGGCCTTCC (double strand) [TL9820 site],activity,[47],> 80 % repression
TTCCCTTCCGCTCACC (double strand) [TL11106 site],activity,[48],> 80 % repression
TTTGCTCTGTCTGCTC (double strand) [TL9717 site],activity,[49],> 80 % repression
